Read-outs that look alike come from different tables or passages of the source.
T1: human TIGIT expressed on HEK293A cells (human, UniProt Q495A1 22-244)
T1 construct: also called HEK293A/human TIGIT cells
T1 sequence: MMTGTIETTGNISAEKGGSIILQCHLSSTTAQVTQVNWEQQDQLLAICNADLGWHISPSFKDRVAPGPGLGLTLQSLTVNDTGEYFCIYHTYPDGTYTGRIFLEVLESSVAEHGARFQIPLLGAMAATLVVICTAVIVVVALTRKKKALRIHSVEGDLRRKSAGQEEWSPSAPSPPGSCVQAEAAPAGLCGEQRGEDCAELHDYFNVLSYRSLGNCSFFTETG

T2: TIGIT (ECD)-hFc (human, UniProt Q495A1 22-141)
T2 construct: bought protein; also called recombinant human TIGIT (ECD)-hFc; Cat #: 10917-H02H, Sino Biological; not shown: human Fc (hFc) of the bought protein
T2 sequence: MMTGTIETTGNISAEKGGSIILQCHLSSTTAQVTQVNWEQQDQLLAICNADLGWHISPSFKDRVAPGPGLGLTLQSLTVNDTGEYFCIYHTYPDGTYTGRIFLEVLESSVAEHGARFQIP

T3: human TIGIT (ECD)-his (human, UniProt Q495A1 22-141)
T3 construct: bought protein; also called hTIGIT(ECD)-his; Cat #: 10917-H08H, Sino Biological; not shown: his tag of the bought protein
T3 sequence: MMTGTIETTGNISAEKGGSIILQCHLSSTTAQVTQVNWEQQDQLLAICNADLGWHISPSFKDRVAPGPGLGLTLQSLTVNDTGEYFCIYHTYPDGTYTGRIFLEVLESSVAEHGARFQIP


Tests used:
[1] = molecular target: T1, human TIGIT expressed on HEK293A cells; assay: FACS, HEK293A/human TIGIT cells, serially diluted antibody (protocol of Example 5) [A]
Experimental: (§1) After incubated at 4° C. for 1 h, plates were washed 3 times with PBST. Then, APC coupled Goat Anti-Mouse IgG (Cat #: 405308, BioLegend, US) diluted 500x was added to the plates. After incubation at 4° C. for 1 h, the plates were washed with PBS for 3 times and then cell fluorescence was monitored using a FACS machine (BD).

[2] = molecular target: T4, monkey TIGIT expressed on HEK293A cells (monkey); assay: FACS, HEK293A/monkey TIGIT cells, serially diluted antibody (protocol of Example 5) [B]
T4 construct: also called HEK293A/monkey TIGIT cells
Experimental: as §1

[3] = molecular target: T2, TIGIT (ECD)-hFc; assay: FACS blocking assay (protocol of Example 7): serially diluted antibody pre-incubated with TIGIT (ECD)-hFc, then binding of TIGIT (ECD)-hFc to A549/human PVR cells measured; blocked ligand: human PVR
Experimental: (§2) After incubated at 4° C. for 1 h, plates were washed 3 times with PBST and then added with PE coupled Goat Anti-human IgG (Cat #: PAI-86078, Thermofisher, US) diluted 500×. After incubation at 4° C. for 1 h, the plates were washed with PBST for 3 times and then cell fluorescence was monitored using a FACS machine (BD).

[4] = molecular target: T1, human TIGIT expressed on HEK293A cells; assay: FACS, HEK293A/human TIGIT cells, serially diluted antibody (protocol of Example 5) [A]; remark: listed apart in the source
[5] = molecular target: T1, human TIGIT expressed on HEK293A cells; assay: FACS on HEK293A/human TIGIT cells
Experimental: as §1

[6] = molecular target: T2, TIGIT (ECD)-hFc; assay: FACS blocking assay: antibody preincubated with TIGIT (ECD)-hFc, binding to A549/human PVR cells
Experimental: as §2

[7] = molecular target: T3, human TIGIT (ECD)-his; assay: ELISA, coated human TIGIT (ECD)-his (table head says FACS)
Experimental: Plates were washed for 3 times with PBST (PBS+0.05% Tween20), added with Goat-anti-mouse IgG-HRP (Cat #: A9309-1 ml, Sigma, US) diluted 5000×, and incubated for 1 h at room temperature. Plates were incubated with freshly prepared Ultra-TMB (Cat #: 555214, BD, US) for 5 minutes at room temperature for color development.

[8] = molecular target: T4, monkey TIGIT expressed on HEK293A cells; assay: FACS on HEK293A/monkey TIGIT cells
Experimental: as §1

[9] = molecular target: T1, human TIGIT expressed on HEK293A cells; assay: cell-based or functional assay
[10] = molecular target: T2, TIGIT (ECD)-hFc; assay: FACS blocking assay (protocol of Example 7): serially diluted antibody pre-incubated with TIGIT (ECD)-hFc, then binding of TIGIT (ECD)-hFc to A549/human PVR cells measured; blocked ligand: human PVR [B]
[11] = molecular target: T3, human TIGIT (ECD)-his; assay: SPR (BIAcore 8K), human TIGIT (ECD)-his on CM5 chip, antibody injected
Experimental: They were also tested in SPR assays for their binding affinities to human and monkey TIGITs using the BIAcore™ 8K instrument (GE Life Sciences, US). […] The binding affinities were calculated with the RUs of blank controls subtracted. The association rate (kₐ) and dissociation rate (kd) were calculated using the one-to-one Langmuir binding model (BIA Evaluation Software, GE Life Sciences, US). The equilibrium dissociation constant KD was calculated as the kd/kₐ ratio.

[12] = molecular target: T5, monkey TIGIT (ECD)-hFc (monkey (cynomolgus)); assay: ELISA, coated monkey TIGIT (ECD)-hFc (table head says FACS)
T5 construct: bought protein; also called cynoTIGIT(ECD)-hFc; cynomolgus TIGIT (ECD)-hFc; not shown: human Fc (hFc) of the bought protein

[13] = molecular target: T5, monkey TIGIT (ECD)-hFc; assay: SPR (BIAcore 8K), monkey TIGIT (ECD)-hFc on CM5 chip, antibody injected

T4 sequence (chain, as listed by the source limits assumed): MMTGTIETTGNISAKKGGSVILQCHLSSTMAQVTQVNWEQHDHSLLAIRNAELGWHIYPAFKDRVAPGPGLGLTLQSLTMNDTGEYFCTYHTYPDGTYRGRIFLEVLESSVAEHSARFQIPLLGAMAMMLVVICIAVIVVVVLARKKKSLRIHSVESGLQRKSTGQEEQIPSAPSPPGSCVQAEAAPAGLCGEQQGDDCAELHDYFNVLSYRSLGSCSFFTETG

| EC50 (read off the curve) [1] [µg/mL] | EC50 (read off the curve) [2] [µg/mL] | EC50 (read off the curve) [4] [µg/mL] | EC50 [5] [nM] | EC50 [8] [nM] | NK92-mediated ADCC against HEK293A/human TIGIT cells, EC50 [9] [nM] | IC50 (read off the curve) [10] [µg/mL] | Kd [11] [nM] | Binder | further results |
| --- | --- | --- | --- | --- | --- | --- | --- | --- | --- |
| ~0.2 | ~0.5 | ~0.2 | – | – | – | – | – | chimeric 149G11 (antibody, human IgG1, kappa, V domains shown, mouse variable regions with human IgG1/kappa constant regions; also called chimeric antibody 149G11) VH: QVQLQQSGTELVRPGTSVKMSCRTAGYTFTNYWIHWVKQRPGHGLEWIGDIYPGGRYSNYNEKFRGKATLTADTSSSTAYMELSSLTSEDSAIYYCARYYESAMDFWGQGTSVTVSS VL: DIVMSQSPSSLAVSVGEKVTVNCKSSQNLLYNSNQKSYLAWFQQKPGQSPKLLIYWASTRESGVPDRFTGSGSGTDFTLTISSVKAEDLAVYYCQQYYNYPFTFGSGTKLEIKR | IC50 (read off the curve) [3]: ~3 µg/mL |
| – | – | – | 0.1 | 1.2 | – | – | – | mouse 149G11 (antibody, V domains shown, also called antibody from clone 149G11) VH: QVQLQQSGTELVRPGTSVKMSCRTAGYTFTNYWIHWVKQRPGHGLEWIGDIYPGGRYSNYNEKFRGKATLTADTSSSTAYMELSSLTSEDSAIYYCARYYESAMDFWGQGTSVTVSS VL: DIVMSQSPSSLAVSVGEKVTVNCKSSQNLLYNSNQKSYLAWFQQKPGQSPKLLIYWASTRESGVPDRFTGSGSGTDFTLTISSVKAEDLAVYYCQQYYNYPFTFGSGTKLEIK | EC50 [6]: 41 nM; EC50 [7]: 0.86 nM |
| ~0.2 | ~0.2 | – | – | – | – | – | – | chimeric 70E11 (antibody, human IgG1, kappa, V domains shown, mouse variable regions with human IgG1/kappa constant regions; also called chimeric antibody 70E11) VH: QVQLQQPGTDLVKPGASVRMSCKASGYTFTSYNVHWVKQTPGQGLEWIGTIYPGNLATSYNQKFKGKATLTADKSSTTAYMQLSSLTSEDSAVYYCARSGTMDYWGQGTTLTVSS VL: ENVVTQSPAIMSASPGEKVTMTCRASSSISSTYLHWYQQKSGASPKLWIYNTQNLASGVPARISGSGSGTSYSLTISSVEAEDAATYYCQQFGGYPLITFGAGTKLELKR | IC50 (read off the curve) [3]: ~3 µg/mL |
| – | – | – | 0.56 | 0.39 | – | – | – | mouse 70E11 (antibody, V domains shown, also called antibody from clone 70E11) VH: QVQLQQPGTDLVKPGASVRMSCKASGYTFTSYNVHWVKQTPGQGLEWIGTIYPGNLATSYNQKFKGKATLTADKSSTTAYMQLSSLTSEDSAVYYCARSGTMDYWGQGTTLTVSS VL: ENVVTQSPAIMSASPGEKVTMTCRASSSISSTYLHWYQQKSGASPKLWIYNTQNLASGVPARISGSGSGTSYSLTISSVEAEDAATYYCQQFGGYPLITFGAGTKLELK | EC50 [6]: 43 nM; EC50 [7]: 0.82 nM |
| – | – | ~0.2 | – | – | 0.013 | ~2 | – | 149G11-VH3VL2 (antibody, human IgG1, kappa, V domains shown, humanized, human IgG1/kappa) VH: QVQLVQSGAEVKKPGASVKVSCKASGYTFTNYWIHWVKQAPGQGLEWIGDIYPGGRYSNYNEKFRGRVTLTADTSTSTVYMELSSLTSEDTAVYYCARYYESAMDFWGQGTTVTVSS VL: DIVMTQSPDSLAVSLGERATINCKSSQNLLYNSNQKSYLAWFQQKPGQPPKLLIYWASTRESGVPDRFSGSGSGTDFTLTISSLQAEDLAVYYCQQYYNYPFTFGAGTKLELKR | – |
| – | – | ~0.2 | – | – | 0.0184 | ~2 | 0.00309 | 149G11-VH4VL2 (antibody, human IgG1, kappa, V domains shown, humanized, human IgG1/kappa) VH: QVQLVQSGAEVKKPGASVKVSCKASGYTFTNYWIHWVKQRPGHGLEWIGDIYPGGRYSNYNEKFRGRVTLTADTSTSTVYMELSSLTSEDTAVYYCARYYESAMDFWGQGTTVTVSS VL: DIVMTQSPDSLAVSLGERATINCKSSQNLLYNSNQKSYLAWFQQKPGQPPKLLIYWASTRESGVPDRFSGSGSGTDFTLTISSLQAEDLAVYYCQQYYNYPFTFGAGTKLELKR | – |
| – | – | ~0.2 | – | – | 0.014 | ~2 | – | 149G11-VH3VL3 (antibody, human IgG1, kappa, V domains shown, humanized, human IgG1/kappa) VH: QVQLVQSGAEVKKPGASVKVSCKASGYTFTNYWIHWVKQAPGQGLEWIGDIYPGGRYSNYNEKFRGRVTLTADTSTSTVYMELSSLTSEDTAVYYCARYYESAMDFWGQGTTVTVSS VL: DIVMTQSPDSLAVSLGERATVNCKSSQNLLYNSNQKSYLAWFQQKPGQSPKLLIYWASTRESGVPDRFSGSGSGTDFTLTISSLQAEDLAVYYCQQYYNYPFTFGAGTKLELKR | – |
| – | – | ~0.2 | – | – | 0.00795 | ~2 | 0.00329 | 149G11-VH2VL3 (antibody, human IgG1, kappa, V domains shown, humanized, human IgG1/kappa; also called 149G11H2L3) VH: QVQLVQSGAEVKKPGASVKVSCKASGYTFTNYWIHWVRQAPGQGLEWIGDIYPGGRYSNYNEKFRGRVTLTADTSTSTVYMELSSLTSEDTAVYYCARYYESAMDFWGQGTTVTVSS VL: DIVMTQSPDSLAVSLGERATVNCKSSQNLLYNSNQKSYLAWFQQKPGQSPKLLIYWASTRESGVPDRFSGSGSGTDFTLTISSLQAEDLAVYYCQQYYNYPFTFGAGTKLELKR | – |
| – | – | ~0.2 | – | – | 0.0177 | ~2 | 0.0022 | 149G11-VH4VL3 (antibody, human IgG1, kappa, V domains shown, humanized, human IgG1/kappa) VH: QVQLVQSGAEVKKPGASVKVSCKASGYTFTNYWIHWVKQRPGHGLEWIGDIYPGGRYSNYNEKFRGRVTLTADTSTSTVYMELSSLTSEDTAVYYCARYYESAMDFWGQGTTVTVSS VL: DIVMTQSPDSLAVSLGERATVNCKSSQNLLYNSNQKSYLAWFQQKPGQSPKLLIYWASTRESGVPDRFSGSGSGTDFTLTISSLQAEDLAVYYCQQYYNYPFTFGAGTKLELKR | – |
| ~0.2 | ~0.2 | – | 0.44 | 0.9 | 0.0465 | – | – | Tiragolumab (antibody, V domains shown) VH: EVQLQQSGPGLVKPSQTLSLTCAISGDSVSSNSAAWNWIRQSPSRGLEWLGKTYYRFKWYSDYAVSVKGRITINPDTSKNQFSLQLNSVTPEDTAVFYCTRESTTYDLLAGPFDYWGQGTLVTVSS VL: not shown | EC50 [12]: 0.14 nM; Kd [13]: 0.0622 nM |
